The values below come from US20240218070A1 (MERUS N V, published 2024).

The target of test [1] is T1, human FAP (huFAP) expressed on cells (human, UniProt Q12884 1-760).
T1 construct: also called WI-38 cells
T1 sequence: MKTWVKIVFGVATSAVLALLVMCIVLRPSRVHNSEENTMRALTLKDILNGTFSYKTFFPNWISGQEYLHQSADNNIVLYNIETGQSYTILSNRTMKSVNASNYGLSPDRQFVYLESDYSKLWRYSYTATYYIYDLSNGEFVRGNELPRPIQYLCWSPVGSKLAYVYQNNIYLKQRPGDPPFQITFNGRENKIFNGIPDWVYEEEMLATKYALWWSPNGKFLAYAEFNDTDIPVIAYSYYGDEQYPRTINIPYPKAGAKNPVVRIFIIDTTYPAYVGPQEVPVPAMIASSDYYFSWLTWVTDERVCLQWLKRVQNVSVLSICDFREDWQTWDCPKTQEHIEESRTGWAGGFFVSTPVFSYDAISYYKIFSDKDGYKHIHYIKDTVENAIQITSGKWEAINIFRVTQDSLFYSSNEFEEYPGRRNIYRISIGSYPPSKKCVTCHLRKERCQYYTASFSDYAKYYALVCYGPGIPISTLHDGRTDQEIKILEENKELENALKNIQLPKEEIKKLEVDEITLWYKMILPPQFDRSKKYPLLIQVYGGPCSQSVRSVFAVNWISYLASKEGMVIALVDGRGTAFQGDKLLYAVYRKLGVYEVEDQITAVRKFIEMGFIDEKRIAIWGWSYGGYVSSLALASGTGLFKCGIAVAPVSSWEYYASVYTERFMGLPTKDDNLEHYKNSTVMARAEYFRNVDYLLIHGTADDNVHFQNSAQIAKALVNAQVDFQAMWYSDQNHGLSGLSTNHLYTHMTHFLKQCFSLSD
Put plainly: FACS titration (10 ug/ml to 3.16 ng/ml) on WI-38 cells. The procedure: The human anti-FAP panel was tested on WI-38 cells (endogenously expressing huFAP) and binding was measured by FACS.
The target cells were harvested, counted, and centrifuged for 5 min at 300 g at 4° C. Cells were then resuspended in FACS buffer at a concentration of 1×10⁶ cells/ml and transferred (200,000 cells/well) to a U-bottom 96-well FACS plate (BD, cat. #353910). Cells were washed by adding 200 μl PBS and centrifuged for 3 min at 300 g at 4 °C. Cells were then centrifuged for 3 min at 300 g at 4° C. and supernatant was discarded. Antibodies were diluted in an 8 steps, semi-log dilution series ranging from 10 ug/ml to 3.16 ng/ml in FACS buffer (50 μ/well), mixed, and incubated for 30 min at 2-8° C. in the dark. A titration of the sibrotuzumab analog was included as positive control and used to normalize data. The negative control TT antibody was included as negative control. Cells were washed by adding 150 μl FACS buffer and centrifuged for 3 min at 300 g at 4° C. Supernatant was discarded, and cells were washed again by adding 200 μl FACS buffer to the plate. Cells were then centrifuged for 3 min at 300 g at 4° C. and afterwards the supernatant was discarded. […] Fluorescence intensity of the cells was then measured on the iQue VBR (Intellicyt).

Test [2] concerns the target T1, human FAP (huFAP) expressed on cells. Put plainly: FACS, 293FF cells stably expressing huFAP, IgG at 2.5 ug/ml. Here is the method: The binding of all test and control antibodies to the cells was tested at a single concentration of 2.5 ug/ml. Goat-anti-human IgG F(ab)2-PE (Invitrogen, H10104) was used as secondary antibody (1:100 in FACS buffer). Ab0625 was used at 10 ug/ml and its binding was detected using Ab0250 (Becton Dickinson, 550767) (1:100 in FACS buffer). The FACS buffer containing PBS (Gibco, cat. #10010-015), 0.5% BSA (Thermo Scientific, cat. #37525), and 2 mM EDTA (Invitrogen, cat. #15575-020) was kept ice cold throughout the assay.
The target cells were harvested, counted, and centrifuged for 5 min at 300 g at 4 °C. Cells were then resuspended in FACS buffer at a concentration of 1×10⁶ cells/ml and transferred (200,000 cells/well) to a U-bottom 96-well FACS plate (BD, cat. #353910). Cells were then centrifuged for 3 min at 300 g at 4° C. and supernatant was discarded. 50 μl of primary antibody solutions were added to the cells, mixed, and incubated for 30 min at 2-8° C. in the dark. Cells were washed by adding 150 μl FACS buffer and centrifuged for 3 min at 300 g at 4° C. Supernatant was discarded, and cells were washed again by adding 200 μl FACS buffer to the plate. Cells were then centrifuged for 3 min at 300 g at 4° C. and afterwards the supernatant was discarded. 50 μl of secondary antibody solutions were added to the cells, mixed, and incubated for 30 min at 2-8° C. in the dark. […]

B1: anti-human FAP bivalent monospecific IgG comprising heavy chain variable region SEQ ID NO: 69 (antibody, V domains shown)
VH: EVQLVETGGGLIQPGGSLRLSCAASGFTVSSNYMSWVRQAPGKGLEWVSVIYSGGSTYYADSVKGRFTISRDNSKNTLYLQMNSLRAEDTAVYYCARGPTDAYPYLDYLWGQGTLVTVSS
VL: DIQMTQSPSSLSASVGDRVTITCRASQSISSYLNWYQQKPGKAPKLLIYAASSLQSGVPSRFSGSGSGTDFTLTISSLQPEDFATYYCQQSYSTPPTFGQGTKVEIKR
notes: IgG1 format, common light chain VK1-39/JK1; also called human/mouse cross-reactive FAP IgG
Consider B1, for which, in test [1], the binding result is reported as “binds”.

B2: anti-human FAP bivalent monospecific IgG comprising heavy chain variable region SEQ ID NO: 15 (antibody, V domains shown)
VH: QLQLQESGPGLVKPSETLSLTCTVSGGSISSSSYFWAWIRQPPGKGLEFIGNIYYSGSTYYNPSLKSRVTISVDTSKNQFSLKLSSVTAADTAVYYCARPSYYGSGNYYFAFWGQGTLVTVSS
VL: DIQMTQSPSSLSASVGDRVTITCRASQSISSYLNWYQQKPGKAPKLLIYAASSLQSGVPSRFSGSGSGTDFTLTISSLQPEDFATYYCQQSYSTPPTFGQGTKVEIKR
notes: IgG1 format, common light chain VK1-39/JK1
Turning to B2, the binding result in test [1] was “binds”.

B3: anti-human FAP bivalent monospecific IgG comprising heavy chain variable region SEQ ID NO: 11 (antibody, V domains shown)
VH: EVQLVESGGGLVQPGGSLRLSCAASGFTFSSYAMIWVRQAPGKGLEWVSAISGSGGYTFNADSVKGRFTMSRDNSKNTLYLQMNSLRAEDTAVYYCAKRDGGYEGGAFDIWGQGTLVTVSS
VL: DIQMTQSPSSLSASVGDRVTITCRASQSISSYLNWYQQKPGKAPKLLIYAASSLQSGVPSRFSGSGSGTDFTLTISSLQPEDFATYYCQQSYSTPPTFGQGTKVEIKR
notes: as for B2
B3: the binding result in test [2] was “binds”.
